Ends that are not written are not given here.
Tests used:
[1] = target: GST-PSD95 PDZ domain 2 (human); assay: G assay ELISA, E6 PL peptide titrated on constant GST-PDZ
[2] = target: GST-PSD95 PDZ domain 2 (human); assay: Matrix/G assay ELISA, E6 peptide titrated on GST-PDZ
[3] = target: GST-SIP1 PDZ domain 1 (human); assay: as above
[4] = target: GST-MAGI1 PDZ domain 2 (human); assay: as above
[5] = target: GST-PSD95 PDZ domains 1-3 (human), P78352; assay: as above
[6] = target: GST-SAST1 PDZ domain (human), Q9Y2H9; assay: as above
[7] = target: GST-DLG2 PDZ domain 3 (human); assay: as above
[8] = target: GST-DLG3 PDZ domains 1-2 (human), Q92796; assay: as above
[9] = target: GST-SAST2 PDZ domain 1 (human); assay: as above

GST-SAST1 PDZ domain (human), Q9Y2H9, sequence (Q9Y2H9 other isoform, or with tags, fused parts or gaps limits assumed): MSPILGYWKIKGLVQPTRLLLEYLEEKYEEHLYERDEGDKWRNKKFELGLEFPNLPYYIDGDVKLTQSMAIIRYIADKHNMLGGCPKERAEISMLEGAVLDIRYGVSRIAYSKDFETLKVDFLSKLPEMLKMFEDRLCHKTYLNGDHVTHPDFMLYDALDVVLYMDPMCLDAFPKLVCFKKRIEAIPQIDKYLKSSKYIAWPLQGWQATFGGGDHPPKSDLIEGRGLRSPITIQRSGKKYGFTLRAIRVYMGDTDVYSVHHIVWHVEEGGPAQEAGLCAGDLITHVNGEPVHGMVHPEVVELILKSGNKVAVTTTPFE
GST-DLG3 PDZ domains 1-2 (human), Q92796, sequence (Q92796 other isoform, or with tags, fused parts or gaps limits assumed): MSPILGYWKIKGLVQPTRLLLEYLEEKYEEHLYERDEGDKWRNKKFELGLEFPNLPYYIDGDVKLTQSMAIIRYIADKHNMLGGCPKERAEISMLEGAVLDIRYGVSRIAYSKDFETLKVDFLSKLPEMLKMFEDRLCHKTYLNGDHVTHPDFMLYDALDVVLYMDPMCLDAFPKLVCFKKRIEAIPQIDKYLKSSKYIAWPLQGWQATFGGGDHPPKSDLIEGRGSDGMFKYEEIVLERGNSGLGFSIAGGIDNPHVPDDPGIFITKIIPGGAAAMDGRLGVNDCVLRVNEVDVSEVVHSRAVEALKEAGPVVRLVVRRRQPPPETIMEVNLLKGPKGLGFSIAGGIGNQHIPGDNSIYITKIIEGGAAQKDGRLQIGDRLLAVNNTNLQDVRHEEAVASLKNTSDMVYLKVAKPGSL

Binder: WTGRCMSCCRSSRTRRETQL (not fully specified; cysteine pairing not given here) [HPV16 E6 C-terminal PDZ ligand peptide (20 mer, biotinylated), P03126 139-158]
- EC50 [1]: 6.8 µM
- EC50 [2]: 6.8 µM
- EC50 [3]: 7.5 µM
- EC50 [4]: 0.056 µM
- EC50 [5]: 1 µM
- EC50 [6]: 0.58 µM
- EC50 [7]: 1.6 µM
- EC50 [8]: 3.8 µM
- EC50 [9]: 1.2 µM

Reference: patent US20040229298A1
